Patent publication US20240301052A1 (LANOVA MEDICINES DEVELOPMENT, published 2024)
Read-outs that look alike come from different tables or passages of the source.

What was measured:
human SLC34A2 [1] = target: T1, human SLC34A2 (human, UniProt O95436 1-690); assay: FACS, OVCAR3 cells
T1 sequence (looked up): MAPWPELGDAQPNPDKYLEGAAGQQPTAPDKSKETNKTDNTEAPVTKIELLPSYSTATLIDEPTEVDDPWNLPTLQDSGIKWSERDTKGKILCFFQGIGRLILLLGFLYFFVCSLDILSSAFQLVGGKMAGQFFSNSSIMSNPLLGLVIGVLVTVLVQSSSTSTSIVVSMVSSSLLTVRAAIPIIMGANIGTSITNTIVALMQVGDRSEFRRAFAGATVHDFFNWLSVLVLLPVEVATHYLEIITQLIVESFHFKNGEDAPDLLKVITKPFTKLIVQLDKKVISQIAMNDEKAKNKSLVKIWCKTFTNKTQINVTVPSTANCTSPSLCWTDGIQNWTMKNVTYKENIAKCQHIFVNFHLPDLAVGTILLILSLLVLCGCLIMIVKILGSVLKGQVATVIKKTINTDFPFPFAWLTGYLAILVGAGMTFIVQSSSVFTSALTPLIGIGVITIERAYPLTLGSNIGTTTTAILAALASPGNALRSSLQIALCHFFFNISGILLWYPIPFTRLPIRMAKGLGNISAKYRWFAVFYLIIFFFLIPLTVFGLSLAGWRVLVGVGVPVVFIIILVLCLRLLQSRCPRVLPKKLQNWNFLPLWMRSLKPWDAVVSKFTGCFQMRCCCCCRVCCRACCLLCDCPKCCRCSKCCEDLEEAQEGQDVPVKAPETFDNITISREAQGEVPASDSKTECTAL

rat SLC34A2 = target: T2, rat SLC34A2 (rat, UniProt Q9JJ09 1-695); assay: FACS, HEK293/Rat SLC34A2 cells
T2 construct: whole, on cells
T2 sequence (looked up): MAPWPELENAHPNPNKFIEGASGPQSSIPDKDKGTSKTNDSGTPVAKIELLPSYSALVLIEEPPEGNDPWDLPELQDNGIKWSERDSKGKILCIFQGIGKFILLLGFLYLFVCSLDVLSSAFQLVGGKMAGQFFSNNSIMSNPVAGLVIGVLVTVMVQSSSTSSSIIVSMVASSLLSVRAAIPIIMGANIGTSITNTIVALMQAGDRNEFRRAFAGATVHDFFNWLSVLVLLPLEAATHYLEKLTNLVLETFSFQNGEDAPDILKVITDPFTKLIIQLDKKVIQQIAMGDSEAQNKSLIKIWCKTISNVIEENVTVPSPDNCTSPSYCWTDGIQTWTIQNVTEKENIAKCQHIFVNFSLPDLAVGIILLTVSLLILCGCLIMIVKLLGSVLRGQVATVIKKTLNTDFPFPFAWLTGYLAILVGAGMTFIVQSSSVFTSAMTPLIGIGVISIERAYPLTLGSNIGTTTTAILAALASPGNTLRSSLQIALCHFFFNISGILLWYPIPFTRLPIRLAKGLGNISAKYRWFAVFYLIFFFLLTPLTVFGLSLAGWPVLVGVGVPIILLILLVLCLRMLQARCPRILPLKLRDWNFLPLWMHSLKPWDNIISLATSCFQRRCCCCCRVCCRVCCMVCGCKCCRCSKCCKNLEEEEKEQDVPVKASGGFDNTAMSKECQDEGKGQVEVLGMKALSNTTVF

mouse SLC34A2 = target: T3, mouse SLC34A2 (mouse, UniProt Q9DBP0 1-697); assay: FACS, HEK293/Mouse SLC34A2 cells
T3 construct: whole, on cells
T3 sequence (looked up): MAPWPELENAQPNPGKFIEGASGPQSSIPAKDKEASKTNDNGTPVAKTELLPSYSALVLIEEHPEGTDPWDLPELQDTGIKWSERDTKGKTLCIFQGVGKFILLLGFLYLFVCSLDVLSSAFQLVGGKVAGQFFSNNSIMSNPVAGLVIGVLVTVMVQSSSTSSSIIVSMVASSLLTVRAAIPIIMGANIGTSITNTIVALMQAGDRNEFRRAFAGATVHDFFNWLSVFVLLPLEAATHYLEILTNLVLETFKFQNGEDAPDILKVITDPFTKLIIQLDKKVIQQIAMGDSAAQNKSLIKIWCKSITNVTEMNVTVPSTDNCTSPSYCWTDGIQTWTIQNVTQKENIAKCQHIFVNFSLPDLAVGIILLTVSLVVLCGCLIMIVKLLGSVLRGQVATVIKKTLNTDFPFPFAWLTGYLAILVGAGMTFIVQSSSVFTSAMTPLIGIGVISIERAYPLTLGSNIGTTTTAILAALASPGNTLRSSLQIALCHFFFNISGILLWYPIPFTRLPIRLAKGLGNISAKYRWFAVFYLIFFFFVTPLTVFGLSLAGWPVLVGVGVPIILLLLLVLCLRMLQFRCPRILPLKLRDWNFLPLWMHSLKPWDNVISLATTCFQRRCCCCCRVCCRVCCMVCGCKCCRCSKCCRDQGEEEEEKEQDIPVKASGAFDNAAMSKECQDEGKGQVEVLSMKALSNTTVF

human SLC34A2 [2] = target: T1, human SLC34A2; assay: FACS, HEK293/human SLC34A2 cells
Rhesus SLC34A2 [3] = target: T4, Rhesus SLC34A2 (Rhesus, UniProt F7HDA3 1-690); assay: FACS, HEK293/Rhesus SLC34A2 cells
T4 construct: whole, on cells
T4 sequence: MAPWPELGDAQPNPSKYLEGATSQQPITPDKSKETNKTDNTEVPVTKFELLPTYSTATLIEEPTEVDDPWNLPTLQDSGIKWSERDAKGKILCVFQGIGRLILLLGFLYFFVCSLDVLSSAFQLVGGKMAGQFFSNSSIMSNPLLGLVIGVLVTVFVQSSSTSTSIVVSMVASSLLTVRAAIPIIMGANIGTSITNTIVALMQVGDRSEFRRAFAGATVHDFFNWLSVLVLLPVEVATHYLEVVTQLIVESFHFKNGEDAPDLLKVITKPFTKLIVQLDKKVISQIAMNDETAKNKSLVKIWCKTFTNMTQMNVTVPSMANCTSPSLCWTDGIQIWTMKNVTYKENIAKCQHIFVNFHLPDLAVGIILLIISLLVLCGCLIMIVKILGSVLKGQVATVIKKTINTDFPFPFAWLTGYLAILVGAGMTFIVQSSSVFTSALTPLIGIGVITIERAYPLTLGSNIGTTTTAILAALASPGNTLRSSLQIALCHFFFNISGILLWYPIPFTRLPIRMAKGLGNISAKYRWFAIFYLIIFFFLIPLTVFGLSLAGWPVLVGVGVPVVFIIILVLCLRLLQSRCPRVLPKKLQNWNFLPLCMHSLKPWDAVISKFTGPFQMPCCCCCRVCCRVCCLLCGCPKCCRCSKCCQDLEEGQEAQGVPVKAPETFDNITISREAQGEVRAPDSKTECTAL

Rhesus SLC34A2 [4] = target: T4, Rhesus SLC34A2; assay: FACS, HEK293/Rhesus SLC34A2 cells; remark: listed apart in the source
[5] = target: Cynomolgus SLC34A2 (Cynomolgus); assay: FACS, cells expressing Cynomolgus SLC34A2

EC50 (human SLC34A2 [1]): 6.87 nM
Top (MFI) (human SLC34A2 [1]): 29000 MFI
EC50 (rat SLC34A2): 4.48 nM
EC50 (mouse SLC34A2): 6.13 nM
EC50 (human SLC34A2 [2]): 4.27 nM
EC50 (Rhesus SLC34A2 [3]): 5.8 nM
Top (MFI) (Rhesus SLC34A2 [3]): 27000 MFI
EC50 (Rhesus SLC34A2 [4]): 2.6 nM
Top (MFI) (Rhesus SLC34A2 [4]): 11500 MFI
EC50 [5]: 3.72 nM
B1: XMT-1536 (antibody, INN chains, looked up, V domains shown)
VH: QVQLVQSGAEVVKPGASVKMSCKASGYTFTGYNIHWVKQAPGQGLEWIGAIYPGNGDTSYKQKFRGRATLTADTSTSTVYMELSSLRSEDSAVYYCARGETARATFAYWGQGTLVTVSS
VL: DIQMTQSPSSLSASVGDRVTITCSASQDIGNFLNWYQQKPGKTVKVLIYYTSSLYSGVPSRFSGSGSGTDYTLTISSLQPEDFATYYCQQYSKLPLTFGQGTKLELK
modifications: rilsodotin auristatin payload
